Experimental findings from the supplement of paper PMC12042874 are described below.

± gives the uncertainty stated by the source.

This data set can be described thus: amyloid nucleation score (Sup35N fusion, yeast selection) (log enrichment); library NNK2; higher = more nucleation; inactive = no reads after selection. Summed up:
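Yeast lacking psi expressed peptides of 20 random codons fused to Sup35N, received 100 μM copper sulfate for 24 hours, and were then grown for 7 days at 30°C on medium lacking adenine and uracil. Illumina sequencing of input and output plasmid inserts provided the reads. Nucleation scores are DiMSum log enrichments of output over input, centred on the mode of non-aggregating sequences. Any sequence with under 100 input reads was excluded.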
In the case of WGITGLVCV, the amyloid nucleation score was -0.674 ± 0.76. With CARMGASLWI, the amyloid nucleation score was 0.214 ± 0.65.

On to LRPLVL, for which the amyloid nucleation score was -0.686 ± 1.1. For the substance REIARGRMYLGSPGLVDIVA, the amyloid nucleation score was -0.232 ± 0.76.

FMVWWFTIRVPEDCYQP registered an amyloid nucleation score of -0.5 ± 0.39. In the case of SVGEFSVRWAACGDLWCW, the amyloid nucleation score amounted to 0.725 ± 0.2. The same measure for NLSYSVVMTGISGAMTTCCF: 3.64 ± 0.11; for LFNEDACTFLTMCANIKVGQ: 4.97 ± 0.081. The substance NTQVTQVILYLRPWV registered an amyloid nucleation score of 9.151 ± 0.038. Consider AVGYVMLMEMEALPISMWRG, for which the amyloid nucleation score came out at 7.027 ± 0.054. ICYILILYTELVRSSLPFLG: the amyloid nucleation score result was “inactive”. TTAWSVEINGTMRNDDMSAS had an amyloid nucleation score of 2.2 ± 0.091. Take RSRSGVLVERFMAVSWDAWH: the amyloid nucleation score was found to be 5.691 ± 0.051. The substance IYFYKSGESFRAYPFAPGQW registered an amyloid nucleation score of -1.37 ± 0.75. For the substance CVVECIRSNHPSNFMMRNLG, the amyloid nucleation score result is “inactive”. As for KFWYYIFCGLCMCYDFSKRR, the amyloid nucleation score was 6.42 ± 0.084. Substance CRNQGVCDAGQSLLN gave an amyloid nucleation score of 0.897 ± 0.29. As for HLPVSLFYRDS, the amyloid nucleation score was determined as 0.165 ± 0.41. With ANSVNRSKDCTYFVFHRF the figure was 5.436 ± 0.054; with LTGCGDFSLLSIYFSRMHRG, 5.2 ± 0.078; with IPCVMG, 0.004 ± 0.65. YHYNNNRWVTGHFQWIWSLY had an amyloid nucleation score of 6.453 ± 0.029. With SIMGRIKIAIHVLRS the figure was 4.12 ± 0.091. On to EIDQSYVNTSSQQTSIYV, for which the amyloid nucleation score result was “inactive”. LLASFGFRKVKIYTLPCILA registered an amyloid nucleation score of -1.15 ± 0.76. With PLAVGRCGGIAYSVWCTVNL the figure was 5.15 ± 0.078; with LGPALFICSDEGDMPL, -0.598 ± 0.63. As for SLRWL, the amyloid nucleation score is -0.18 ± 0.74. The same measure for GNRDF: “inactive”; for KMPWMTCSHVTFTRIHSKIS: -0.57 ± 0.48; for RHLDSDPRIRKPHFGDPVNT: -0.144 ± 0.55. In turn, VRFYDLFFKVGRQVYCLNNS showed an amyloid nucleation score of -0.694 ± 0.55. In the case of LRLFYHVR, the amyloid nucleation score was -0.641 ± 0.33. Turning to SQGGIRWY, the amyloid nucleation score was -0.842 ± 0.38. Substance CTILVILSKVSYCQYPWEHV showed an amyloid nucleation score of 1.52 ± 0.14. As to GEMYV, the amyloid nucleation score was -0.31 ± 1. As to NNVGWVLHDGRFFSVSHYIA, the amyloid nucleation score is 0.294 ± 1.1. With GRCPVSRVHGIQRSGDGSVI, the amyloid nucleation score was -0.383 ± 1.1. With IMSSHKSAYRVFLHGLCRMV the figure was -0.028 ± 0.74.

Substance FCVAGQLLVS displayed an amyloid nucleation score of 0.228 ± 0.25. On to SSFFRISS, for which the amyloid nucleation score is -0.907 ± 1. As to VYMGSDL, the amyloid nucleation score was 6.07 ± 0.072. With VSDSNFNNGRYWLSVWRDVV the figure was 4.25 ± 0.067. In the case of YNKGWR, the amyloid nucleation score result is “inactive”. As for RNAEA, the amyloid nucleation score was -0.5 ± 0.63. Regarding CLRSCRPYSQTIINVA, the amyloid nucleation score turned out to be 6.16 ± 0.062. The same measure for IFHCGLLRALRFSSHLYWVG: 0.505 ± 0.51. GWQWRWLHYRSVRINEEMVS: the amyloid nucleation score was 0.342 ± 0.34. ARNSGWTATSSVYPLKTPAT had an amyloid nucleation score of 1.37 ± 0.42.

VSVGACTHTLYKVRALSQGV yielded an amyloid nucleation score of 0.486 ± 0.26. Take RRLSGSFLRDYVNPWIQRSS: the amyloid nucleation score is -0.277 ± 0.42. SIGWRPPCLVFDVGWRREGQ yielded an amyloid nucleation score of -0.109 ± 0.42. NILVLLVTGVTLGR returned an amyloid nucleation score of 4.11 ± 0.059. As to LIRQMYMGRFYAVNRENH, the amyloid nucleation score is -0.743 ± 0.79.

In turn, NLNFPMRSSILDCAGDNVRR registered an amyloid nucleation score of 0.49 ± 0.8.

Take AYFRLWVRAWTLASGE: the amyloid nucleation score was 0.938 ± 0.2. On to NNVRMYLSFRAIVY, for which the amyloid nucleation score is -1.19 ± 0.76. The substance RFTESYSL returned an amyloid nucleation score of -0.935 ± 0.48. On to KRDLGFRVVLWYLW, for which the amyloid nucleation score was -0.942 ± 0.6. Consider LGYDDGYVAGRGKADMFSLD, for which the amyloid nucleation score entry is “inactive”. VFRDLSIERFIRSYVNCDRG: the amyloid nucleation score entry was “inactive”. For WGFTLWKLWRV, the amyloid nucleation score worked out at 0.676 ± 0.15. The same measure for SKGGCTEFIEKTWNLCSCLV: -1.1 ± 0.78; for FTDCHWSDLLRSFVAWYDIV: 0.918 ± 0.58; for RRMNHLPFCCKRYRTSRPKF: 0.222 ± 0.64. The substance VYFSCFSLWSSYDVIGRWSC came in with an amyloid nucleation score of 7.446 ± 0.036. For FFTAMDASRSRLKCSYAVQT, the amyloid nucleation score was found to be 3.28 ± 0.13.

Consider FSKHCYIIMYDISRSKTSIF, for which the amyloid nucleation score is -0.525 ± 1.1. For SNVYYRVC, the amyloid nucleation score worked out at 4.72 ± 0.084. The same measure for VVNTVYSFSE: 0.332 ± 0.35; for SMSIYKAAYSFVTGSP: 7.475 ± 0.026; for TPLTVYDFPYNEGCCAV: 1.7 ± 0.34.

In turn, TGILMWAGLQVHV gave an amyloid nucleation score of 1.86 ± 0.13. With KFILCCLFPTYGREFCTSGL the figure was 8.921 ± 0.068. With NIGRYIIQVGSNGEANWHRV the entry was “inactive”; with PISTSLADR, 1.21 ± 0.42; with VSLSERLTHLLCIRF, 0.343 ± 0.64.

Turning to SSASALMKLVMMY, the amyloid nucleation score was -0.003 ± 0.22.

VWDLMLKKAFTNSSNCYSVA yielded an amyloid nucleation score of 1.19 ± 0.19. The same measure for IYKGTASIISCRWGWSVRHW: -0.573 ± 0.79; for TYSLICQSTTKRFWVWKATL: -0.619 ± 1. The substance WCSNR showed an amyloid nucleation score of 0.153 ± 0.45.

Substance WCLSLPVRDSTVCLSTVLSG returned an amyloid nucleation score of 0.294 ± 0.29. For THTGLGG, the amyloid nucleation score was 0.654 ± 0.8. HNNFIFYFLLNLMICVHYGQ: the amyloid nucleation score was determined as 6.066 ± 0.036. Substance IPTFKDLGFISESIMYNG came in with an amyloid nucleation score of -1.38 ± 0.42. In turn, HLNNCALGTDLILNALDVS returned an amyloid nucleation score of -0.426 ± 0.54. In turn, YRTPYFIAIQDQRYCLVSLG had an amyloid nucleation score of -0.87 ± 0.45.

The substance NDCSGKDVVILQQE returned an amyloid nucleation score of 0.192 ± 1. Regarding PNIKNIT, the amyloid nucleation score came out at 2.38 ± 0.24. Substance YQAGWDEVGSLCLRVRNEKL yielded an amyloid nucleation score of 4.38 ± 0.074. The same measure for GFWVDQNSDPNWVSQAPDFM: “inactive”; for TVAWTSRLFSLAGLLHFDR: 4.82 ± 0.062; for NCWNLICLKSSFRR: 9.054 ± 0.05. The same measure for LVYDKENIGRLDRRRVWRRQ: 0.767 ± 0.74; for QSLIDSVHVALHKLLRRYVK: -0.232 ± 0.65.

RYIGMLRFVVCDYGLMIFWS yielded an amyloid nucleation score of -0.394 ± 1.1. As to YGWFFVYDEVLLFISYSNVV, the amyloid nucleation score result is “inactive”.

Take CPRPTCAPHCWYFVLAMVAR: the amyloid nucleation score was -0.4 ± 0.64. On to LTPIPFYNPDNISYYNAFPS, for which the amyloid nucleation score result is “inactive”. The same measure for FINILKSSMLSVDWSLPIFN: “inactive”. Substance FYFWVSDYQLGDMVNIMNLS showed an amyloid nucleation score of -0.184 ± 1.1.

SRFISLSSEDVSALNTCNNR yielded an amyloid nucleation score of 1.25 ± 0.61.
